This is an account of results in article PMC12698673 (Communications Biology, 2025).

Sequences and labels used below:
B1: CBP-KIX MLLmut (I660A and L664A) (domain or fragment)
chain: not shown
B3: FOXO4-CR3 (conserved region 3, transactivation domain of FOXO4, aa 469–505) (domain or fragment, UniProt P98177 469-505, looked up)
chain: DLDLDMYMENLECDMDNIISDLMDEGEGLDFNFEPDP
B4: CBP-KIX c-Mybmut (Y650A, A654Q, and Y658A) (domain or fragment)
chain: not shown

The target in test [1] is B3. Description: ITC. Background: ITC needs no label: the signal is the heat of the interaction.
Test [2] has as its target B4. Briefly: NMR titration.
Test [3] deals with B4. Briefly: ITC.
In test [4] the target is B1. Briefly: ITC.
Test [5] has as its target KIX domain of CBP (CBP-KIX, aa 586–672) (UniProt P45481 586-672). Description: ITC.
The target in test [6] is B4. Description: paramagnetic relaxation enhancement.

Ends that are not written are not given here. * marks the point of attachment. MTSL = CC1(C)C=C(CS*)C(C)(C)N1[O]

Sequence of KIX domain of CBP (CBP-KIX, aa 586–672) (P45481 586-672): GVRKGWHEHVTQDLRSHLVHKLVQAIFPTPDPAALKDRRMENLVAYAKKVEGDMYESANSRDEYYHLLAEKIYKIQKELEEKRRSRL

B1 showed a dH in test [1] of -4.58 kcal/mol.

B2: FOXO4-CR3 M491A (domain or fragment, UniProt P98177 469-505, looked up)
chain: DLDLDMYMENLECDMDNIISDLADEGEGLDFNFEPDP
Consider B2, for which the binding result in test [2] is reported as “binds”. What is called Kd is the constant that tells how readily two partners part at equilibrium. B3: the dissociation constant Kd in test [3] turned out to be 1200 nM; in test [4], 2760 nM; in test [5], 3350 ± 140 nM. For B4, in test [1], the dH is -1.43 kcal/mol.

B5: FOXO4-CR3 labelled with MTSL at C481 (domain or fragment, UniProt P98177 469-505, looked up)
chain: DLDLDMYMENLEC(MTSL)DMDNIISDLMDEGEGLDFNFEPDP
With B5, the binding result in test [6] is listed as “binds”.
